For assay [1], the target named is T1, human MICA004 on cells (human).
T1 construct: whole, on cells; also called CHO-MICA004; C1R-MICA004
Nature of the assay: flow cytometry, CHO-MICA004 cells. A general note: A flow cytometer gives signals particle by particle.
Method: (§1) IgG1 is an isotype control (IgG). The antibody binding signals of APC (gMFI) to MICA/B were measured by flow cytometry.
(§2) After an incubation time of 30 minutes, the plate was centrifuged and cells were washed with PBS three times. […] After mixing for 30 minutes at room temperature, cells were washed with PBS twice. Fluorescent signal was detected and quantified by flow cytometry (Attune™ CytPix™, ThermoFisher) within the population of live cells (viability dye PI negative).

The target in assay [2] is T2, human MICA008 on cells (human).
T2 construct: whole, on cells; also called CHO-MICA008; C1R-MICA008
The assay is described as follows: flow cytometry, CHO-MICA008 cells.
Method: as §1, §2

Assay [3] has as its target T1, human MICA004 on cells. Nature of the assay: flow cytometry, CHO-MICA004 cells. The source holds these as a separate data set.
Assay [4] has as its target T2, human MICA008 on cells. Nature of the assay: flow cytometry, HeLa cells (MICA008).
Method: as §1, §2
Assay [5] has as its target T2, human MICA008 on cells. Nature of the assay: flow cytometry, HeLa cells (MICA008). The source holds these as a separate data set.
For assay [6], the target named is T3, MICA002-ECD-HISAvi (human, UniProt Q29983 24-308).
T3 construct: also called MICA002 polypeptide
T3 chain: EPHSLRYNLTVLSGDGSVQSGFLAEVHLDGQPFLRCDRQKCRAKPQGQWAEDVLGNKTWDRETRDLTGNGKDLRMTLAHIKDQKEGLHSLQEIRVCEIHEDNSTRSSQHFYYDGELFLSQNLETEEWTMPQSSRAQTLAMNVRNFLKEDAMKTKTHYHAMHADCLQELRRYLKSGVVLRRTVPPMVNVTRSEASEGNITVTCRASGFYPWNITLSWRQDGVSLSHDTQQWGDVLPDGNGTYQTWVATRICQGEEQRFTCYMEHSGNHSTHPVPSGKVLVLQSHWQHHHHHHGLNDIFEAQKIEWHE
The assay is described as follows: BLI (GatorPrime); antibody on anti-hIgG Fc probe, monomeric antigen in solution.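 Also: binding kinetics of anti-MICA/B antibodies measured by biolayer interferometry, with dissociation followed for about 10 min.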
Method: (§3) The binding kinetics of the antibodies were also measured using the GatorPrime BLI (Biolayer Interferometry) system (Gator Bio, USA). Specifically, the anti-MICA/B antibodies were loaded with HFC (Anti-hIgG Fc, Gator Bio, Cat #: 160003). […] The dissociation kinetics were monitored for approximately 10 minutes. The probes were regenerated between binding cycles with Regeneration Buffer (Gator Bio, Cat #: 120012). Binding kinetics were analyzed using software supplied by the manufacturer.

Assay [7] has as its target T4, MICA004-ECD-HISAvi (human).
T4 construct: also called MICA004 polypeptide
T4 chain: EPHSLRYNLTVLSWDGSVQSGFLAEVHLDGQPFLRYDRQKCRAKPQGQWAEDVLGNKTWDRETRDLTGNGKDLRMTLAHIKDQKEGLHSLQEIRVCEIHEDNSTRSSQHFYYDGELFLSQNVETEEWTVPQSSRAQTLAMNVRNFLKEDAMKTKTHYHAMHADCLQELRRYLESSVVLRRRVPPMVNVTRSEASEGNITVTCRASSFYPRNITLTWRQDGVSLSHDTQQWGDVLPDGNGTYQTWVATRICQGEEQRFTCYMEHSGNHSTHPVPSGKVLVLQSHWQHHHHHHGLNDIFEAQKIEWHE
The description is as above.
Method: as §3

Assay [8] addresses T5, MICA008-ECD-HISAvi (human).
T5 construct: Two sources under one name in the two kinetic assays; also called MICA008 polypeptide
T5 chain: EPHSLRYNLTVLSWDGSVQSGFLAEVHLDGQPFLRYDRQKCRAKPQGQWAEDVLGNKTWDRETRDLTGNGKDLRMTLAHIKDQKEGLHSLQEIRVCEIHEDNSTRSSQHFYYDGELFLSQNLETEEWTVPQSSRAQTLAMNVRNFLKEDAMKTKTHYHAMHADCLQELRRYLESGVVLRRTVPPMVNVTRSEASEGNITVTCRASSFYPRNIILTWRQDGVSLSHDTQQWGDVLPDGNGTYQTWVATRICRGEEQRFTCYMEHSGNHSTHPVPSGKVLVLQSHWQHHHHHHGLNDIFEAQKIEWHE
The description is as above.
Method: as §3

The target of assay [9] is T6, MICB005-ECD-HISAvi (human, UniProt Q29980 24-309).
T6 construct: Two sources under one name in the two kinetic assays; also called MICB005 polypeptide
T6 sequence: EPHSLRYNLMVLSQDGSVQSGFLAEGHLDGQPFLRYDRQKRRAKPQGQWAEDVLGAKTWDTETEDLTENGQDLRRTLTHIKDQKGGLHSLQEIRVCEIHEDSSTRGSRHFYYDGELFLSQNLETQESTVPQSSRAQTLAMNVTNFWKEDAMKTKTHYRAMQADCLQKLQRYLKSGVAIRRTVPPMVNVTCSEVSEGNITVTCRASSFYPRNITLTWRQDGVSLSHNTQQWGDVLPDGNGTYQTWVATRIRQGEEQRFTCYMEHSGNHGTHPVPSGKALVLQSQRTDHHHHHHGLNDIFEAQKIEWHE
Described as above.
Method: as §3

The next assay addresses T7, MICA009Avi (human).
T7 construct: extracellular domain
The assay is described as above.

The target of assay [10] is T8, Cynomolgus monkey MICA (cynoMICA) (Cynomolgus monkey (Macaca fascicularis)).
T8 construct: also called cyno monkey MICA; cyno MIC protein
The description is as above.
Method: as §3

In assay [11] the target is T3, MICA002-ECD-HISAvi. Nature of the assay: SPR (Carterra); antibody captured by anti-human Fc, monomeric ECD antigen injected.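 Also: dissociation phase followed for about 10 min.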
Method: (§4) The dissociation kinetics were monitored for approximately 10 minutes. The chip surface was regenerated between binding cycles with 10 mM glycine HCl, pH 1.7. Binding kinetics were analyzed using software supplied by the manufacturer.
Assay [12] addresses T4, MICA004-ECD-HISAvi. The assay is described as above.
Method: as §4
The target in assay [13] is T5, MICA008-ECD-HISAvi. The description is as above.
Method: as §4
Assay [14] deals with T6, MICB005-ECD-HISAvi. Described as above.
Method: as §4
For a further assay, the target named is T9, human MICB005 on cells (human).
T9 construct: whole, on cells; also called CHO-MICB005; C1R-MICB005
The assay is described as follows: flow cytometry on CHO-MICB005 cells; column HSA_2w (2 weeks in human serum at 37 C).

Where two headings read alike, the source gives them in different places.

This passage reports EC50 and Kd results from patent US20250368742A1 (D2M BIOTHERAPEUTICS, published 2025).

For orientation: EC50 means the concentration at which the effect is half-maximal. As a reminder, the Kd is the equilibrium constant for the complex coming apart.

T2 sequence (Q29983 whole entry): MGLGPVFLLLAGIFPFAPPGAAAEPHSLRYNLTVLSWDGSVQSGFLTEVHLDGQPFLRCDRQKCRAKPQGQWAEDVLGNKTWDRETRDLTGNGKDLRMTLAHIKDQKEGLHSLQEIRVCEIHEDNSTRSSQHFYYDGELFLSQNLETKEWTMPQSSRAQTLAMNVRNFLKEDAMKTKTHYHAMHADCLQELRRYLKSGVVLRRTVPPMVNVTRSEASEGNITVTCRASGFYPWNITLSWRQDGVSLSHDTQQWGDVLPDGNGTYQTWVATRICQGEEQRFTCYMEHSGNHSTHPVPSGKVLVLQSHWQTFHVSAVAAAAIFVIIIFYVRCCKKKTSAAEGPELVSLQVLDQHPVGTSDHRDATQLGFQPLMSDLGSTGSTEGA
T1 sequence (Q29983 whole entry): as above
T7 sequence (Q29983 24-307): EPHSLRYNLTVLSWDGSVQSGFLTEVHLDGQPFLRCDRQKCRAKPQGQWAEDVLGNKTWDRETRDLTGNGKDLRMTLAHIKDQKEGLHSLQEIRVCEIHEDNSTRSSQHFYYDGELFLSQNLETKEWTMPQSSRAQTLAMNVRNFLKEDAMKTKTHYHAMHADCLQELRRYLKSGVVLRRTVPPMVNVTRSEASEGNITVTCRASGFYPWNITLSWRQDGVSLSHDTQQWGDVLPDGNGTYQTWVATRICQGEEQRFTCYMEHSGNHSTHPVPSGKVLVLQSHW
Method for MICA009Avi: as §3
Method for human MICB005 on cells: The plate was centrifuged, and cells were washed with PBS three times. […] After incubation for 30 minutes at room temperature, cells were washed with PBS twice. Signals of APC were determined by flow cytometry (Attune™ CytPix™, ThermoFisher) within the population of live cells (viability dye PI negative).
The EC50 values were calculated based on non-linear fitting curves by GraphPad Prism software.

B1: 1D5 (antibody, human IgG1, kappa, V domains shown)
VH: EIQLQQSGPELVKPGASVKVSCKASGYAFTSQNIYWVKQSHGKSLEWIGYIEPYNVVPMYNPKFKGKATLTVDKSSSSAYIHLNSLTSEDSAIYYCARSGSSNFDYWGQGTTLTVSS
VL: EIILTQSPTTMAASPGEKITITCSASSSISSHYLHWYQQKSGFSPKLLIYRTSNLASGVPARFSGSGSGTSYSLTIGTMEAEDVATYYCQQGSSLPLTFGAGTKVEIKR
notes: also called ID5
For the molecule B1, the EC50 with human MICA004 on cells [1] came to 0.157 mg/L; with human MICA008 on cells [2], 0.028 mg/L; with human MICA004 on cells [3], 0.193 mg/L; with human MICA008 on cells [4] it was 0.034 mg/L; with human MICA008 on cells [5], 0.133 mg/L; in the assay with human MICB005 on cells it was 0.287 mg/L. Moreover, the Kd with MICA002-ECD-HISAvi [6] stood at 0.0757 nM; with MICA004-ECD-HISAvi [7], 0.101 nM; with MICA008-ECD-HISAvi [8] it was 0.026 nM; with MICB005-ECD-HISAvi [9], 0.195 nM; with MICA009Avi it was 0.11 nM; in assay [10], 5.2 nM. For the same molecule, the Kd with MICA002-ECD-HISAvi [11] is 0.47 nM; in the assay with MICA004-ECD-HISAvi [12], 1.35 nM; in the assay with MICA008-ECD-HISAvi [13] it was 1.79 nM; with MICB005-ECD-HISAvi [14] it was 2.3 nM.

B2: 3F9 (antibody, human IgG1, kappa, V domains shown)
VH: QVQLVESGGGLVKPGGSLRLSCAASGFTFSNYAMSWIRQAPGKGLEWVSYISPGGDYIYYADSVKGRFTISRDNAKNSLYLQMNSLRAEDTAVYYCTTDRRHYGSYAMDYWGQGTLVTVSS
VL: DIVMTQSPLSLPVTPGEPASISCRSSKSLLHSNLNTYLYWFLQKPGQSPQILIYRMSNLASGVPDRFSGSGSGTAFTLKISRVEAEDVGVYYCMQHLEYPFTFGPGTKLEIKR
notes: also called benchmark 3F9
Take B2: the 50% effective concentration (EC50) with human MICA004 on cells [1] is 0.443 mg/L; with human MICA008 on cells [2], 0.119 mg/L; in the assay with human MICA004 on cells [3] it was 0.89 mg/L; with human MICA008 on cells [4] it was 0.115 mg/L; in the assay with human MICA008 on cells [5], 0.651 mg/L; with human MICB005 on cells it was 0.784 mg/L. Besides, the Kd with MICA002-ECD-HISAvi [6] worked out at 1.35 nM; with MICA004-ECD-HISAvi [7], 1.08 nM; with MICA008-ECD-HISAvi [8] it was 0.295 nM; with MICB005-ECD-HISAvi [9] it was 2.19 nM; with MICA009Avi it was 0.936 nM; in [10], 14.3 nM. The Kd was 5.67 nM with MICA002-ECD-HISAvi [11], 4.05 nM with MICA004-ECD-HISAvi [12], 2.82 nM in the assay with MICA008-ECD-HISAvi [13] and 9.29 nM with MICB005-ECD-HISAvi [14].
